Results published in US20180086841A1.

Key:
[1] = target: W90A; test: flow cytometry on CHO-K1 transfectants, left sub-column, cell hatched (loss of binding)
[2] = target: R87A; test: as above
[3] = target: Macaca mulatta CD27 (mmCD27) (Macaca mulatta (rhesus) / Macaca fascicularis (cynomolgus)); test: flow cytometry MFI, CD4+ T cells in rhesus peripheral blood, n=4
[4] = target: Macaca mulatta CD27 (mmCD27) (Macaca mulatta (rhesus) / Macaca fascicularis (cynomolgus)); test: cell-based or functional assay
[5] = target: human CD27 (human) (UniProt P26842); test: cell-based or functional assay
[6] = target: human CD27 (A59T) (human) (UniProt P26842); test: cell-based or functional assay
[7] = target: Macaca mulatta CD27 (mmCD27) (Macaca mulatta (rhesus) / Macaca fascicularis (cynomolgus)); test: cell ELISA on CD27-transfected CHOK1 cells, n=2
[8] = target: human CD27 (human) (UniProt P26842); test: cell ELISA on CD27-transfected CHOK1 cells, n=2
[9] = target: human CD27 (A59T) (human) (UniProt P26842); test: cell ELISA on CD27-transfected CHOK1 cells, n=2
[10] = target: human CD27 (human) (UniProt P26842); test: competition cell ELISA on CHO-hCD27; competitor detected: mouse hCD27.15 at 1 µg/ml
[11] = target: human CD27 (human) (UniProt P26842); test: flow cytometry MFI, CD4+ T cells in human peripheral blood, n=4
[12] = target: human CD27 (human) (UniProt P26842); test: flow cytometry MFI, CD8+ T cells in human peripheral blood, n=4
[13] = target: R93A; test: flow cytometry on CHO-K1 transfectants, left sub-column
Chain of R93A (receptor chain, as listed by the source R93A R93A limits assumed): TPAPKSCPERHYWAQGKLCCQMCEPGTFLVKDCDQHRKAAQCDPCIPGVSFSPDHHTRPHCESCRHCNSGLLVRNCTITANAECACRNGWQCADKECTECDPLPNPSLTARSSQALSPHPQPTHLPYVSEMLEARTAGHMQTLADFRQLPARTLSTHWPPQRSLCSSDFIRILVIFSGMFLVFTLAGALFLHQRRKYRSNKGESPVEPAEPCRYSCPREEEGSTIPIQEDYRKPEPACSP

[14] = target: D32A; test: as above
Chain of D32A (receptor chain, as listed by the source D32A D32A limits assumed): as the sequence (receptor chain, as listed by the source R93A R93A limits assumed) above, with D32A, A93R counted along it

[15] = target: P44A; test: as above
Chain of P44A (receptor chain, as listed by the source P44A P44A limits assumed): as the sequence (receptor chain, as listed by the source R93A R93A limits assumed) above, with P44A, A93R counted along it

[16] = target: I46A; test: as above
Chain of I46A (receptor chain, as listed by the source I46A I46A limits assumed): as the sequence (receptor chain, as listed by the source R93A R93A limits assumed) above, with I46A, A93R counted along it

[17] = target: S63A; test: as above
Chain of S63A (receptor chain, as listed by the source S63A S63A limits assumed): as the sequence (receptor chain, as listed by the source R93A R93A limits assumed) above, with S63A, A93R counted along it

[18] = target: D43A; test: as above
Chain of D43A (receptor chain, as listed by the source D43A D43A limits assumed): as the sequence (receptor chain, as listed by the source R93A R93A limits assumed) above, with D43A, A93R counted along it

[19] = target: G89A; test: as above
Chain of G89A (receptor chain, as listed by the source G89A G89A limits assumed): as the sequence (receptor chain, as listed by the source R93A R93A limits assumed) above, with G89A, A93R counted along it

[20] = target: V49A; test: as above
Chain of V49A (receptor chain, as listed by the source V49A V49A limits assumed): as the sequence (receptor chain, as listed by the source R93A R93A limits assumed) above, with V49A, A93R counted along it

[21] = target: K38A; test: as above
Chain of K38A (receptor chain, as listed by the source K38A K38A limits assumed): as the sequence (receptor chain, as listed by the source R93A R93A limits assumed) above, with K38A, A93R counted along it

[22] = target: K17A; test: as above
Chain of K17A (receptor chain, as listed by the source K17A K17A limits assumed): as the sequence (receptor chain, as listed by the source R93A R93A limits assumed) above, with K17A, A93R counted along it

[23] = target: K31A; test: as above
Chain of K31A (receptor chain, as listed by the source K31A K31A limits assumed): as the sequence (receptor chain, as listed by the source R93A R93A limits assumed) above, with K31A, A93R counted along it

[24] = target: H36A; test: as above
Chain of H36A (receptor chain, as listed by the source H36A H36A limits assumed): as the sequence (receptor chain, as listed by the source R93A R93A limits assumed) above, with H36A, A93R counted along it

[25] = target: R93A; test: flow cytometry on CHO-K1 transfectants, right sub-column
[26] = target: D32A; test: as above
[27] = target: F28A; test: as above
[28] = target: Q91A; test: as above
[29] = target: H60A; test: as above
Chain of H60A (receptor chain, as listed by the source H60A H60A limits assumed): as the sequence (receptor chain, as listed by the source R93A R93A limits assumed) above, with H60A, A93R counted along it

[30] = target: E9A; test: as above
[31] = target: G16A; test: as above
[32] = target: P44A; test: as above
[33] = target: P8A; test: as above
Chain of P8A (receptor chain, as listed by the source limits assumed): as the sequence (receptor chain, as listed by the source R93A R93A limits assumed) above, with P8A, A93R counted along it

[34] = target: N88A; test: as above
[35] = target: I46A; test: as above
[36] = target: S63A; test: as above
[37] = target: D43A; test: as above
[38] = target: G89A; test: as above
[39] = target: R10A; test: as above
Chain of R10A (receptor chain, as listed by the source R10A R10A limits assumed): as the sequence (receptor chain, as listed by the source R93A R93A limits assumed) above, with R10A, A93R counted along it

[40] = target: V49A; test: as above
[41] = target: Q15A; test: as above
[42] = target: W13A; test: as above
[43] = target: R37A; test: as above
[44] = target: V30A; test: as above
Chain of V30A (receptor chain, as listed by the source V30A V30A limits assumed): as the sequence (receptor chain, as listed by the source R93A R93A limits assumed) above, with V30A, A93R counted along it

[45] = target: K38A; test: as above
[46] = target: Q41A; test: as above
[47] = target: K17A; test: as above
[48] = target: K31A; test: as above
[49] = target: H36A; test: as above
[50] = target: W90A; test: flow cytometry on CHO-K1 transfectants, right sub-column, cell hatched (loss of binding)
[51] = target: R87A; test: as above

Chain of 1F5-hIgG1 (antibody) (VH): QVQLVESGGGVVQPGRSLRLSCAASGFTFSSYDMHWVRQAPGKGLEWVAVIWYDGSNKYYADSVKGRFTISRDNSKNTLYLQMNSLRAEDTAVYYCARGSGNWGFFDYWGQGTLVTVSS
Chain of 1F5-hIgG1 (antibody) (VL): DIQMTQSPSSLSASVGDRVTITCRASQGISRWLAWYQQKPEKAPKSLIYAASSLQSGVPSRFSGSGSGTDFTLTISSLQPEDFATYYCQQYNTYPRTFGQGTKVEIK
Chain of W90A (receptor chain, as listed by the source W90A W90A limits assumed): as the sequence (receptor chain, as listed by the source R93A R93A limits assumed) above, with W90A, A93R counted along it
Chain of R87A (receptor chain, as listed by the source R87A R87A limits assumed): as the sequence (receptor chain, as listed by the source R93A R93A limits assumed) above, with R87A, A93R counted along it

Substance: 1F5-hIgG1 (antibody)
- binding, WT hCD27 = 100 (GM FITC) [1]: 42.5%
- binding, WT hCD27 = 100 (GM FITC) [2]: 40.8%
- EC50 [3]: 1.58 nM
- NF-κB-luciferase reporter assay, Emax [4]: 1.33 fold change
- NF-κB-luciferase reporter assay, Emax [5]: 1.48 fold change
- NF-κB-luciferase reporter assay, Emax [6]: 1.3 fold change
- EC50 [7]: 0.193 nM
- EC50 [8]: 0.325 nM
- EC50 [9]: 0.326 nM
- IC50 (read off the curve) [10]: 4 nM
- EC50 [11]: 1.54 nM
- EC50 [12]: 1.3 nM
- binding, WT hCD27 = 100 (GM FITC) [13]: 120%
- binding, WT hCD27 = 100 (GM FITC) [14]: 115%
- binding, WT hCD27 = 100 (GM FITC) [15]: 150%
- binding, WT hCD27 = 100 (GM FITC) [16]: 128%
- binding, WT hCD27 = 100 (GM FITC) [17]: 144%
- binding, WT hCD27 = 100 (GM FITC) [18]: 202%
- binding, WT hCD27 = 100 (GM FITC) [19]: 103%
- binding, WT hCD27 = 100 (GM FITC) [20]: 143%
- binding, WT hCD27 = 100 (GM FITC) [21]: 96.5%
- binding, WT hCD27 = 100 (GM FITC) [22]: 95.1%
- binding, WT hCD27 = 100 (GM FITC) [23]: 205%
- binding, WT hCD27 = 100 (GM FITC) [24]: 116%
- binding, WT hCD27 = 100 (GM FITC) [25]: 85.5%
- binding, WT hCD27 = 100 (GM FITC) [26]: 59.6%
- binding, WT hCD27 = 100 (GM FITC) [27]: 46.2%
- binding, WT hCD27 = 100 (GM FITC) [28]: 115%
- binding, WT hCD27 = 100 (GM FITC) [29]: 110%
- binding, WT hCD27 = 100 (GM FITC) [30]: 120%
- binding, WT hCD27 = 100 (GM FITC) [31]: 101%
- binding, WT hCD27 = 100 (GM FITC) [32]: 83.7%
- binding, WT hCD27 = 100 (GM FITC) [33]: 73.1%
- binding, WT hCD27 = 100 (GM FITC) [34]: 119%
- binding, WT hCD27 = 100 (GM FITC) [35]: 69.7%
- binding, WT hCD27 = 100 (GM FITC) [36]: 121%
- binding, WT hCD27 = 100 (GM FITC) [37]: 86.1%
- binding, WT hCD27 = 100 (GM FITC) [38]: 68.5%
- binding, WT hCD27 = 100 (GM FITC) [39]: 113%
- binding, WT hCD27 = 100 (GM FITC) [40]: 92.8%
- binding, WT hCD27 = 100 (GM FITC) [41]: 127%
- binding, WT hCD27 = 100 (GM FITC) [42]: 82.8%
- binding, WT hCD27 = 100 (GM FITC) [43]: 88%
- binding, WT hCD27 = 100 (GM FITC) [44]: 88.9%
- binding, WT hCD27 = 100 (GM FITC) [45]: 94.2%
- binding, WT hCD27 = 100 (GM FITC) [46]: 66.3%
- binding, WT hCD27 = 100 (GM FITC) [47]: 112%
- binding, WT hCD27 = 100 (GM FITC) [48]: 120%
- binding, WT hCD27 = 100 (GM FITC) [49]: 80%
- binding, WT hCD27 = 100 (GM FITC) [50]: 10%
- binding, WT hCD27 = 100 (GM FITC) [51]: 7.8%
